Experimental data published in PMC5391180.

Target: actin filaments of MCF-7 cells, marked by Lifeact-RFP (human (endogenous in MCF-7)) (UniProt P60709)
Test: FRET or BRET

Sequence of GFP-tagged nonmuscle myosin IIC1 (alternatively spliced isoform of nonmuscle myosin heavy chain IIC) (natural protein) (Q7Z406 2-1995): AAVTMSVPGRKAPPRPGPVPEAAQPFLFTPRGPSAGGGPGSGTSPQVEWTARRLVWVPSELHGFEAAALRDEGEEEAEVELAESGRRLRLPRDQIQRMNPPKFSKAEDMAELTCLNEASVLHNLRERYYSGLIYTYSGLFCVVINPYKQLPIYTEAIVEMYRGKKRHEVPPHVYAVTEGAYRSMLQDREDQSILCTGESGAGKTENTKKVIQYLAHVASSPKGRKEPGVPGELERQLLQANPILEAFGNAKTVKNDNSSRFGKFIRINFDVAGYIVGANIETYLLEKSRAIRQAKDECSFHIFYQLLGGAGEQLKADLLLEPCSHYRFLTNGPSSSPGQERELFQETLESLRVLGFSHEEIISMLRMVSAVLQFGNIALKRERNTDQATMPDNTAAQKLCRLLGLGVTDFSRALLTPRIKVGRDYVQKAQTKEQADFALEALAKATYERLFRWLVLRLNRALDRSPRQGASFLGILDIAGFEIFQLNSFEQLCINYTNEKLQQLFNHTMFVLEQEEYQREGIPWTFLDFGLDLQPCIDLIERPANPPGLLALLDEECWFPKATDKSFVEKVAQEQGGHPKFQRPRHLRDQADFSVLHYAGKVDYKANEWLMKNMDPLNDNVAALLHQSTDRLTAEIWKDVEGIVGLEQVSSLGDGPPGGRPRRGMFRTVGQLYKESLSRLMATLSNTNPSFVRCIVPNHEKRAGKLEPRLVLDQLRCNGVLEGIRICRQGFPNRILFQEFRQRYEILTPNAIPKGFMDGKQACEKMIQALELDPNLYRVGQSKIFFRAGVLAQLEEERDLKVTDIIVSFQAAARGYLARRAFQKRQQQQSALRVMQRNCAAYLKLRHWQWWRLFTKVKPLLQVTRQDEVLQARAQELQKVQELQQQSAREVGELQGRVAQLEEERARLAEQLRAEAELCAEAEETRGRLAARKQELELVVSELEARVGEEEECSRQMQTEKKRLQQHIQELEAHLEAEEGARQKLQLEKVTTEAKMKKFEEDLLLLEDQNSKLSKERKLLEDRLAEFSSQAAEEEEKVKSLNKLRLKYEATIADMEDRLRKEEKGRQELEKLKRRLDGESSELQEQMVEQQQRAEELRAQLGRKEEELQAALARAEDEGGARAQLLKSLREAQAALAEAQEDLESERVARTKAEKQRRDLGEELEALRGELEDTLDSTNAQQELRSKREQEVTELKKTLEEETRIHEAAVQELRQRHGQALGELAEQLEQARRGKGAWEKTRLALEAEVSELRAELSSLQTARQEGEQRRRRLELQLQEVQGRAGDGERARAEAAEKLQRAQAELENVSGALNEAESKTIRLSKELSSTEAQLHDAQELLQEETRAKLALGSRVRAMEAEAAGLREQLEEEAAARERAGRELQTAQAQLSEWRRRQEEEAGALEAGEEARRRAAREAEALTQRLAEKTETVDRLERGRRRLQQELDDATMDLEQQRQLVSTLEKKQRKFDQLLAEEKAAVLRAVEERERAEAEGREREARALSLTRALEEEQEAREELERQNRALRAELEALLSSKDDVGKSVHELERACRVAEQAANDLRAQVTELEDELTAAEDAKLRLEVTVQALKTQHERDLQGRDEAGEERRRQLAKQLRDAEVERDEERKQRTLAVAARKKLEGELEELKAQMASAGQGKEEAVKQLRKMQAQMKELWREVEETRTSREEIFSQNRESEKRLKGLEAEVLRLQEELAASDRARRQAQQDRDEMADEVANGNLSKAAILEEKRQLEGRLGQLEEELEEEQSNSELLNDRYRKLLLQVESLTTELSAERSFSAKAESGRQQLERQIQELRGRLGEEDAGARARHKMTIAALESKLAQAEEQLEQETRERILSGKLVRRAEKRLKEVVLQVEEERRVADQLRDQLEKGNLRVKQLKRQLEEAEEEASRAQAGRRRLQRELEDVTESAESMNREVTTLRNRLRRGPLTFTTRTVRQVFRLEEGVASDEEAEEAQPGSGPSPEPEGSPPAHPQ

| Substance | dwell time tau, high-FRET state, bleb cortex | shorter average dwell time tau1, high-FRET state, cell cortex | longer average dwell time tau2, high-FRET state, cell cortex |
| --- | --- | --- | --- |
| GFP-tagged nonmuscle myosin IIA (nonmuscle myosin heavy chain IIA, NMHC-IIA) (from UniProt P35579 1-1960) (natural protein) | 46 s | 33 s | – |
| GFP-tagged nonmuscle myosin IIB (nonmuscle myosin heavy chain IIB, NMHC-IIB) (from UniProt P35580 1-1976) (natural protein) | 93 s | 35 s | 110 s |
| GFP-tagged nonmuscle myosin IIC1 (alternatively spliced isoform of nonmuscle myosin heavy chain IIC) (natural protein) | – | 35 s | – |
